Measurements taken from the supplement of paper PMC9112550, “Optimization of the antimicrobial peptide Bac7 by deep mutational scanning” (BMC Biology, 2022).

Tested on: Escherichia coli TOP10
Assay: shrunken log2 fold change of peptide-encoding DNA abundance (4.5 h post-induction vs induction); higher = less antimicrobial activity (less host growth inhibition)
Conditions: time post-induction: 4.5 h; library: site-saturation at positions 5, 18, 19, 20
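Also: peptides expressed intracellularly from a pBAD plasmid library in pooled LB shake-flask culture, induced with 0.3% L-arabinose, DNA abundance read by NGS, three biological replicates, DESeq2 with apeglm shrinkage.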

Sequence	shrunken log2 fold change
RRIRERPPRLPRPRPRPSTAPRP	-0.151
RRIRGRPPRLPRPRPRPEVWPRP	1.58
RRIRFRPPRLPRPRPRPGSFPRP	-0.0983
RRIRDRPPRLPRPRPRPQYHPRP	-0.47
RRIRKRPPRLPRPRPRPAVEPRP	0.019
RRIRKRPPRLPRPRPRPNSTPRP	-0.0291
RRIRTRPPRLPRPRPRPQSYPRP	-0.0281
RRIRARPPRLPRPRPRPNTEPRP	0.154
RRIRVRPPRLPRPRPRPVVGPRP	0.126
RRIRARPPRLPRPRPRPCIRPRP	-0.365
RRIRNRPPRLPRPRPRPETKPRP	0.384
RRIRLRPPRLPRPRPRPRDDPRP	0.108
RRIRKRPPRLPRPRPRPTMTPRP	0.608
RRIRHRPPRLPRPRPRPHRIPRP	-0.0803
RRIRIRPPRLPRPRPRPYTNPRP	-0.957
RRIRHRPPRLPRPRPRPQQQPRP	-0.158
RRIRCRPPRLPRPRPRPWDLPRP	0.129
RRIRRRPPRLPRPRPRPIPDPRP	0.277
RRIRARPPRLPRPRPRPNRYPRP	-0.191
RRIRHRPPRLPRPRPRPIPYPRP	-0.3
RRIRRRPPRLPRPRPRPWCVPRP	-0.032
RRIRIRPPRLPRPRPRPCRQPRP	0.112
RRIRRRPPRLPRPRPRPCCGPRP	0.0161
RRIRQRPPRLPRPRPRPGWAPRP	0.113
RRIRERPPRLPRPRPRPLTKPRP	-0.0153

Sequence	shrunken log2 fold change
RRIRSRPPRLPRPRPRPWEYPRP	-0.0607
RRIRKRPPRLPRPRPRPLWFPRP	0.107
RRIRHRPPRLPRPRPRPQIFPRP	-0.135
RRIRNRPPRLPRPRPRPKPHPRP	0.174
RRIRSRPPRLPRPRPRPKVFPRP	-0.063
RRIRWRPPRLPRPRPRPTATPRP	0.528
RRIRHRPPRLPRPRPRPVALPRP	-0.112
RRIRARPPRLPRPRPRPAVFPRP	0.679
RRIRSRPPRLPRPRPRPSRGPRP	0.483
RRIRTRPPRLPRPRPRPYIVPRP	-1.04
RRIRVRPPRLPRPRPRPMWAPRP	0.0354
RRIRFRPPRLPRPRPRPDIKPRP	-0.602
RRIRKRPPRLPRPRPRPTLMPRP	0.758
RRIRDRPPRLPRPRPRPNLAPRP	-0.0121
RRIRERPPRLPRPRPRPSSPPRP	-0.824
RRIRNRPPRLPRPRPRPVKHPRP	-0.23
RRIRARPPRLPRPRPRPVADPRP	1.44
RRIRNRPPRLPRPRPRPSCCPRP	-0.318
RRIRDRPPRLPRPRPRPLWQPRP	0.316
RRIRRRPPRLPRPRPRPVDGPRP	0.576
RRIRQRPPRLPRPRPRPCVRPRP	-0.154
RRIRKRPPRLPRPRPRPCTPPRP	0.192
RRIRGRPPRLPRPRPRPIRMPRP	0.0246
RRIRARPPRLPRPRPRPTKNPRP	0.429
RRIRVRPPRLPRPRPRPQICPRP	-0.185

Sequence	shrunken log2 fold change
RRIRSRPPRLPRPRPRPNICPRP	-0.0465
RRIRIRPPRLPRPRPRPEKDPRP	-0.0191
RRIRPRPPRLPRPRPRPLTFPRP	-0.113
RRIRDRPPRLPRPRPRPAWQPRP	0.861
RRIRIRPPRLPRPRPRPEAEPRP	0.677
RRIRFRPPRLPRPRPRPFGTPRP	-0.587
RRIRPRPPRLPRPRPRPTMGPRP	0.0476
RRIRHRPPRLPRPRPRPQVMPRP	-0.0437
RRIRFRPPRLPRPRPRPGNNPRP	-0.276
RRIRRRPPRLPRPRPRPYWTPRP	0.000827
RRIRNRPPRLPRPRPRPMGKPRP	-0.491
RRIRQRPPRLPRPRPRPRMLPRP	-0.0148
RRIRSRPPRLPRPRPRPNQPPRP	0.0618
RRIRVRPPRLPRPRPRPALMPRP	0.193
RRIRKRPPRLPRPRPRPQFSPRP	0.0164
RRIRARPPRLPRPRPRPSFWPRP	0.354
RRIRRRPPRLPRPRPRPSLCPRP	1.05
RRIRIRPPRLPRPRPRPRARPRP	0.456
RRIRCRPPRLPRPRPRPFTCPRP	-0.223
RRIRARPPRLPRPRPRPCNVPRP	-0.0688
RRIRGRPPRLPRPRPRPLRAPRP	1.72
RRIRLRPPRLPRPRPRPWDFPRP	-0.00136
RRIRTRPPRLPRPRPRPIQHPRP	-0.403
RRIRWRPPRLPRPRPRPKWQPRP	0.0119
RRIRGRPPRLPRPRPRPSAVPRP	1.39

Sequence	shrunken log2 fold change
RRIRGRPPRLPRPRPRPWQRPRP	0.0817
RRIRWRPPRLPRPRPRPHWQPRP	-0.00204
RRIRLRPPRLPRPRPRPDHYPRP	0.101
RRIRFRPPRLPRPRPRPQCKPRP	-0.422
RRIRHRPPRLPRPRPRPTPWPRP	0.692
RRIRSRPPRLPRPRPRPLKWPRP	0.0381
RRIRVRPPRLPRPRPRPIPSPRP	-0.165
RRIRRRPPRLPRPRPRPESDPRP	0.6
RRIRHRPPRLPRPRPRPNKQPRP	-0.545
RRIRMRPPRLPRPRPRPFFPPRP	-1.89e-05
RRIRRRPPRLPRPRPRPTAFPRP	1.31
RRIRSRPPRLPRPRPRPICDPRP	0.228
RRIRYRPPRLPRPRPRPNAFPRP	-0.158
RRIRKRPPRLPRPRPRPDFRPRP	0.134
RRIRFRPPRLPRPRPRPRQLPRP	-0.0618
RRIRHRPPRLPRPRPRPYPNPRP	-0.014
RRIRERPPRLPRPRPRPHGNPRP	-0.0832
RRIRCRPPRLPRPRPRPAQNPRP	0.586
RRIRERPPRLPRPRPRPHLKPRP	-0.268
RRIRMRPPRLPRPRPRPSPMPRP	0.369
RRIRYRPPRLPRPRPRPHWFPRP	-0.402
RRIRQRPPRLPRPRPRPQWLPRP	0.0957
RRIRPRPPRLPRPRPRPSFFPRP	0.19
RRIRMRPPRLPRPRPRPLAEPRP	3.05
RRIRQRPPRLPRPRPRPPARPRP	0.23

Sequence	shrunken log2 fold change
RRIRWRPPRLPRPRPRPRSTPRP	0.551
RRIRRRPPRLPRPRPRPRGGPRP	0.509
RRIRQRPPRLPRPRPRPLHDPRP	-0.346
RRIRFRPPRLPRPRPRPWDVPRP	-0.0811
RRIRARPPRLPRPRPRPRWYPRP	-0.0331
RRIRMRPPRLPRPRPRPDSNPRP	0.754
RRIRVRPPRLPRPRPRPVCAPRP	0.413
RRIRWRPPRLPRPRPRPSTNPRP	-0.127
RRIRRRPPRLPRPRPRPMALPRP	5.63e-05
RRIRVRPPRLPRPRPRPNCAPRP	0.289
RRIRQRPPRLPRPRPRPCRDPRP	0.0161
RRIRLRPPRLPRPRPRPNIEPRP	-0.304
RRIRVRPPRLPRPRPRPWITPRP	-1.08
RRIRHRPPRLPRPRPRPYWMPRP	-1.63
RRIRIRPPRLPRPRPRPETFPRP	-0.202
RRIRLRPPRLPRPRPRPPKPPRP	0.555
RRIRYRPPRLPRPRPRPEDNPRP	-0.0125
RRIRIRPPRLPRPRPRPREHPRP	-0.393
RRIRPRPPRLPRPRPRPATQPRP	0.133
RRIRSRPPRLPRPRPRPEYRPRP	0.2
RRIRGRPPRLPRPRPRPQGIPRP	-0.128
RRIRDRPPRLPRPRPRPSVDPRP	0.0621
RRIRLRPPRLPRPRPRPKNQPRP	-0.202
RRIRIRPPRLPRPRPRPAPWPRP	0.0917
RRIRFRPPRLPRPRPRPANVPRP	-0.246

Sequence	shrunken log2 fold change
RRIRPRPPRLPRPRPRPLRSPRP	0.167
RRIRRRPPRLPRPRPRPENKPRP	-0.0891
RRIRMRPPRLPRPRPRPAEMPRP	0.0981
RRIRMRPPRLPRPRPRPRPRPRP	1.68
RRIRRRPPRLPRPRPRPEMTPRP	0.638
RRIRNRPPRLPRPRPRPYWDPRP	-0.54
RRIRYRPPRLPRPRPRPPCEPRP	-0.468
RRIRMRPPRLPRPRPRPHRFPRP	-0.0727
RRIRWRPPRLPRPRPRPHPIPRP	0.062
RRIRQRPPRLPRPRPRPPGDPRP	0.194
RRIRVRPPRLPRPRPRPWVPPRP	-0.101
RRIRQRPPRLPRPRPRPKRVPRP	-0.154
RRIRNRPPRLPRPRPRPENTPRP	-0.803
RRIRNRPPRLPRPRPRPLDHPRP	-0.0699
RRIRNRPPRLPRPRPRPGMCPRP	-0.0316
RRIRKRPPRLPRPRPRPMYEPRP	-0.132
RRIRFRPPRLPRPRPRPIQMPRP	-0.0945
RRIRSRPPRLPRPRPRPVTLPRP	-0.167
RRIRWRPPRLPRPRPRPQKMPRP	-0.0924
RRIRVRPPRLPRPRPRPNHMPRP	-0.0124
RRIRGRPPRLPRPRPRPPVHPRP	0.644
RRIRHRPPRLPRPRPRPGYGPRP	-0.318
RRIRMRPPRLPRPRPRPGEGPRP	1.23
RRIRIRPPRLPRPRPRPYDVPRP	-0.101
RRIRNRPPRLPRPRPRPEFNPRP	-0.0322
